Experimental data from article PMC6494882, “Inhibition of MYC by the SMARCB1 tumor suppressor”.

Target: MAX:MAX (UniProt P61244 1-160)
Experiment: EMSA; no SNF5; 15 mM Tris-HCl pH 7.9, 15% glycerol, 100 mM KCl, 0.15 mM EDTA, 0.075% NP-40, 7.5 mM 2-mercaptoethanol, 40 ng poly(dI-dC), 375 ng/ul BSA, 25 fmol probe, 10-15 ul, 30 min, room temperature; SUMO-BAF155(533-580) added to equalize total protein in SNF5 experiments
Conditions: protein: recombinant; tags: 6xHis; chain copies: 2; label: 3'-biotin

Chain of MAX:MAX (P61244 whole entry): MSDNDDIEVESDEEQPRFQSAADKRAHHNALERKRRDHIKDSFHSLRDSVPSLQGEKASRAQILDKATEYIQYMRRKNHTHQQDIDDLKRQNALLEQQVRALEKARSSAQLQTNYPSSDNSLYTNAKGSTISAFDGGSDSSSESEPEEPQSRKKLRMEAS

B1: wild-type E-box probe (dsDNA)
DNA 1: GCTCAGGGACCACGTGGTCGGGGATC
DNA 2: GATCCCCGACCACGTGGTCCCTGAGC
binding result: binds
